This note sets out measurements from paper PMC10692146 (2023).

Where no end group is shown, it is not given here.

For assay [1], the target named is T1, reduced p38α (MAPK14), recombinant mouse protein kept with reducing agent (DTT or TCEP) (mouse, UniProt P47811 1-360). In words: ITC; oxidized p38α re-reduced by dialysis with TCEP. (In general: ITC needs no label: the signal is the heat of the interaction.)
Assay [2] deals with T1, reduced p38α (MAPK14), recombinant …. In words: ITC.

T1 sequence (P47811 whole entry): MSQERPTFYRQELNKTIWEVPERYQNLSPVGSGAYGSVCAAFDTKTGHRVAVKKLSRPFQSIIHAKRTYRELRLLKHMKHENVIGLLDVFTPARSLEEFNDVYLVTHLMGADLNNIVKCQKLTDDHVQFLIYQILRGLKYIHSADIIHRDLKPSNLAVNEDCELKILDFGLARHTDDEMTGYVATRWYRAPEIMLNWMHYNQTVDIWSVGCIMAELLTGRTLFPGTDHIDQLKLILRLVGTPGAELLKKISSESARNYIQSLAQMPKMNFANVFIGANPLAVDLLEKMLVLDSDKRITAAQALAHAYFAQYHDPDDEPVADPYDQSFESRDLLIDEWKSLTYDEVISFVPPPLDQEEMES

The term Kd denotes a measure of binding affinity in units of concentration. Turning to RVYPVSVPYSSAQSTSKTSVTLSLVMPSQ (also: FITC label, end not given here) [FITC-TAB1 peptide (amino acids 384-412 of TAB1)], the values for the Kd in assay [1] and in assay [2] were 2660 nM and 1200 nM, respectively.
